How the values were obtained:
Assay in all cases: cell-based or functional assay
[1] = target: HIV-1 Env of isolate MG RM-D-021 (subtype D) (HIV-1)
[2] = target: HIV-1 Env of isolate MGRM-C-004 (pseudovirus) (HIV-1 isolate MGRM-C-004, subtype C)
[3] = target: HIV-1 Env of isolate MGRM-C-027 (pseudovirus) (HIV-1 isolate MGRM-C-027, subtype C)
[4] = target: HIV-1 JR-CSF Env N197A (HIV-1 (isolate JR-CSF)) (UniProt P20871)
[5] = target: HIV-1 Env of isolate MGRM-F1-021 (HIV-1)
[6] = target: HIV-1 JR-CSF Env R480A (HIV-1 (isolate JR-CSF)) (UniProt P20871)
[7] = target: HIV-1 Env of isolate 97ZA012 (pseudovirus) (HIV-1 isolate 97ZA012, subtype C)
[8] = target: HIV-1 JR-CSF Env N478A (HIV-1 (isolate JR-CSF)) (UniProt P20871)
[9] = target: HIV-1 MGRM-C-027 envelope glycoprotein (Env) on pseudovirus (HIV-1)
[10] = target: HIV-1 Env of isolate MGRM-C-022 (pseudovirus) (HIV-1 isolate MGRM-C-022, subtype C)
[11] = target: HIV-1 Env of isolate MGRM-G-025 (subtype G) (HIV-1)
[12] = target: HIV-1 Env of isolate MGRM-G-001 (subtype G) (HIV-1)
[13] = target: HIV-1 Env of isolate MGRM-G-004 (subtype G) (HIV-1)
[14] = target: HIV-1 Env of isolate MGRM-G-028 (subtype G) (HIV-1)
[15] = target: HIV-1 Env of isolate MGRM-G-027 (subtype G) (HIV-1)
[16] = target: HIV-1 Env of isolate MGRM-G-014 (subtype G) (HIV-1)
[17] = target: HIV-1 93UG077 envelope glycoprotein (Env) (HIV-1)
[18] = target: HIV-1 Env of isolate MGRM-C-019 (HIV-1)
[19] = target: HIV-1 Env of isolate SC422661.8 (HIV-1)
[20] = target: HIV-1 Env of isolate MGRM-C-006 (HIV-1)
[21] = target: HIV-1 Env of isolate 98CN006 (HIV-1)
[22] = target: HIV-1 Env of isolate MGRM-D-001 (HIV-1)
[23] = target: HIV-1 Env of isolate MGRM-D-016 (HIV-1)
[24] = target: HIV-1 Env of isolate MGRM-D-022 (HIV-1)
[25] = target: HIV-1 Env of isolate 97ZA012 (HIV-1)
[26] = target: HIV-1 Env of isolate MGRM-F1-017 (subtype F), on pseudovirus (HIV-1)
[27] = target: HIV-1 Env of isolate MGRM-F1-021 (subtype F), on pseudovirus (HIV-1)
[28] = target: HIV-1 Env of isolate 98IN022 (HIV-1)
[29] = target: HIV-1 Env of isolate MGRM-C-028 (HIV-1)

Row | Substance | IC50 (µg/mL), pseudovirus neutralization [1] [µg/mL] | IC50 (µg/mL) neutralization [2] [µg/mL] | IC50 (µg/mL) neutralization [3] [µg/mL] | Fold IC50 increase relative to wild-type [4] [fold] | IC50 [5] [µg/mL] | Fold IC50 increase relative to wild-type [6] [fold] | IC50 (µg/mL) neutralization [7] [µg/mL] | Fold IC50 increase relative to wild-type [8] [fold] | IC50 (ug/ml), neutralizing activity [9] [µg/mL] | IC50 (µg/mL) neutralization [10] [µg/mL] | neutralization IC50 [11] [µg/mL] | neutralization IC50 [12] [µg/mL] | neutralization IC50 [13] [µg/mL] | neutralization IC50 [14] [µg/mL] | neutralization IC50 [15] [µg/mL] | neutralization IC50 [16] [µg/mL] | other results
1 | 5141_B17 (PGT-126) (antibody) | 0.047 | 0.033 | 15.6 | 1.1 | > 50 | 1.9 | 0.042 | 1 | 1.14 | 0.96 | – | – | – | – | – | – | –
2 | 5123_A06 (PGT-125) (antibody) | 0.015 | 1.82 | > 50 | 1 | > 50 | 2.1 | 2.46 | 1.5 | > 10 | 1.23 | – | – | – | – | – | – | neutralization IC50 [9]: > 10 µg/mL; neutralization IC80 [9]: > 10 µg/mL; neutralization IC90 [9]: > 10 µg/mL; neutralization IC95 [9]: > 10 µg/mL
3 | PGT-143 (4980_N08) (antibody) | – | – | – | – | – | – | – | – | – | – | > 50 | 0.423 | > 50 | 43 | > 50 | 0.107 | –
4 | PGT-122 (antibody) | – | – | – | – | – | – | – | – | – | – | – | – | – | – | – | – | IC50 neutralization [17]: 0.191 µg/mL
5 | PGT-142 (4995_E20) (antibody) | – | – | – | – | – | – | – | – | – | – | > 50 | 0.362 | > 50 | 30.3 | > 50 | 0.076 | –
6 | 5345_I01 (PGT-137) (antibody) | – | – | – | – | – | – | – | – | – | – | – | – | – | – | – | – | IC50 [18]: > 50 µg/mL; IC50 [19]: > 50 µg/mL; IC50 [20]: > 50 µg/mL; IC50 [21]: 1.22 µg/mL; IC50 [22]: > 50 µg/mL; IC50 [23]: > 50 µg/mL; IC50 [24]: > 50 µg/mL; IC50 [25]: > 50 µg/mL; IC50, pseudovirus neutralization [26]: > 50 µg/mL; IC50, pseudovirus neutralization [27]: > 50 µg/mL; IC50 [28]: 0.408 µg/mL; IC50 [29]: > 50 µg/mL
7 | PGV04 (antibody) | – | – | – | – | – | – | – | – | – | – | 1.61 | > 50 | > 50 | 0.352 | 0.125 | 0.056 | IC50, pseudovirus neutralization [21]: 1.32 µg/mL; IC50 (µg/mL), pseudovirus neutralization [22]: > 50 µg/mL; IC50 (µg/mL), pseudovirus neutralization [23]: 0.201 µg/mL; IC50 (µg/mL), pseudovirus neutralization [24]: > 50 µg/mL
8 | 4858_P08 (PGT-123) (antibody) | 11.1 | 0.009 | 0.02 | 1.4 | 0.307 | 1.7 | 0.002 | 0.6 | 0.0169 | 0.01 | – | – | – | – | – | – | IC50, pseudovirus neutralization [9]: 0.0169 µg/mL; IC80, pseudovirus neutralization [9]: 0.149 µg/mL; IC90 (pseudovirus neutralization) [9]: > 10 µg/mL; IC95, pseudovirus neutralization [9]: > 10 µg/mL
9 | PGT-144 (4970_K22) (antibody) | – | – | – | – | – | – | – | – | – | – | > 50 | > 50 | > 50 | > 50 | > 50 | 0.562 | –
10 | VRC01 (antibody) | – | – | – | – | – | – | – | – | – | – | 0.292 | 0.0371 | > 50 | 0.164 | 0.36 | 0.056 | neutralization IC50 [19]: 0.179 µg/mL; IC50, pseudovirus neutralization [5]: 0.039 µg/mL; IC50, pseudovirus neutralization [23]: 0.452 µg/mL; IC50, pseudovirus neutralization [24]: > 50 µg/mL; neutralization IC50 [25]: 0.088 µg/mL; neutralization IC50 [28]: 0.342 µg/mL
